Where no end group is shown, it is not given here.

The target in test [1] is T1, Anti-PSMA Fab (SEQ ID NOs: 19, 20).
T1 construct: Biotinylated PSMA Fab captured on neutravidin coated plates in the phage ELISA; also called 006 PSMA Fab
The test is described as follows: phage binding ELISA on captured anti-PSMA Fab; competitor: PSMA antigen pre-incubated in the wells. For orientation: ELISA stands for enzyme-linked immunosorbent assay.
Procedure: (§1) Clonal phage were harvested as crude supernatants and screened via standard ELISAs. […] Prior to the addition of clonal phage. wells were incubated with blocking buffer and PSMA antigen or blocking buffer alone. Without washing or aspirating, clonal phage supernatants were then added to the wells and incubated for a short time. Wells were then washed followed by detection of bound phage using a horse radish conjugated anti-M13 antibody.

For test [2] the target is unchanged. The test is described as follows: phage binding ELISA; biotinylated anti-PSMA Fab on neutravidin plate, bound phage detected with anti-M13-HRP.
Procedure: as §1
Test [3] addresses T2, Anti-PSMA Fab (SEQ ID NOs: 19, 20).
T2 construct: In the phage ELISA the Fab was biotinylated and captured on neutravidin coated plates; also called 006 PSMA Fab
Nature of the test: phage ELISA; PSMA Fab on plate pre-incubated with PSMA antigen as competitor, anti-M13 HRP detection.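 Further: crude clonal phage supernatants added to Fab-coated wells still holding PSMA antigen in blocking buffer, with bound phage as read-out.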
Procedure: as §1

For test [4] the target is unchanged. The test is described as follows: phage ELISA; biotinylated PSMA Fab on neutravidin plate, clonal phage supernatant, anti-M13 HRP detection.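 Further: wells preincubated with PSMA antigen in blocking buffer or with blocking buffer only before clonal phage were added for a short incubation, then bound phage detected.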
Procedure: as §1
For test [5], the target named is T3, Anti-PSMA Fab (SEQ ID NOs: 19, 20).
T3 construct: In the panning ELISA the Fab was biotinylated and captured on neutravidin coated plates; also called 006 PSMA Fab
The test is described as follows: phage binding ELISA; biotinylated PSMA Fab on neutravidin plate, clonal phage supernatant, anti-M13 HRP detection.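 Further: wells were preincubated with blocking buffer either containing PSMA antigen or without it before crude phage supernatant was added, briefly incubated, then washed prior to detection.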
Procedure: as §1

Test [6] shares this target. The test is described as follows: phage binding ELISA; biotinylated PSMA Fab on neutravidin plate pre-incubated with PSMA antigen (competitor), anti-M13 HRP detection.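 Further: competition ELISA where clonal phage supernatants were added to wells preincubated with PSMA antigen or with blocking buffer only as control, bound phage read via HRP-coupled anti-M13 antibody.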
Procedure: as §1

B1: Phage-1862 (peptide)
peptide: LDKWCIPEWMCFDY
As for B1, the “Anti-PSMA Fab signal in the presence of PSMA” value in test [1] was found to be 0.0678. The “Anti-PSMA Fab (SEQ ID NOs: 19, 20) signal” value in test [2] was 2.14.

B2: Phage-1854 (peptide)
peptide: WEKWCTPQWMCELI
modifications: cysteine pairing not given here; also: displayed on phage as pIII fusion, pIII and linker sequences not given here
notes: Clone of the Peptide-180 library
B2: the “Phage binding ELISA, Anti-PSMA Fab signal in the presence of PSMA” value (shortened to “Phage binding ELISA … of PSMA”) in test [3] is 0.182. In addition, in test [4], the “Phage binding ELISA, Anti-PSMA Fab signal” value stood at 2.17.

B3: Phage-1872 (peptide)
peptide: VMKWCIPEWMCQHT
Turning to B3, in test [1], the “Anti-PSMA Fab signal in the presence of PSMA” value is 0.199. The “Anti-PSMA Fab (SEQ ID NOs: 19, 20) signal” value in test [2] amounted to 2.09.

B4: Phage-1867 (peptide)
peptide: WENRCTPAWMCKGF
Consider B4, for which the “Anti-PSMA Fab signal in the presence of PSMA” value in test [1] turned out to be 0.0837. Also, in test [2], the “Anti-PSMA Fab (SEQ ID NOs: 19, 20) signal” value is 2.12.

B5: Phage-1863 (peptide)
peptide: DFRWCIPEWMCTGY
Regarding B5, in test [1], the “Anti-PSMA Fab signal in the presence of PSMA” value stood at 0.11. The “Anti-PSMA Fab (SEQ ID NOs: 19, 20) signal” value in test [2] worked out at 2.14.

B6: Phage-1887 (peptide)
peptide: LDHWCFPMWMCTGF
notes: tested as crude clonal phage supernatant
For B6, the “Anti-PSMA Fab (SEQ ID NOs: 19, 20) signal” value in test [5] came out at 2.05. For the same molecule, the “Anti-PSMA Fab signal in the presence of PSMA” value in test [6] was found to be 0.233.

B7: Phage-1881 (peptide)
peptide: LEKWCTPAWMCEML
notes: as for B6
Turning to B7, the “Anti-PSMA Fab (SEQ ID NOs: 19, 20) signal” value in test [5] stood at 2.06. For the same molecule, in test [6], the “Anti-PSMA Fab signal in the presence of PSMA” value was determined as 0.0814.

B8: Phage-1857 (peptide)
peptide: VMKWCIPSWMCSQD
modifications: cysteine pairing not given here; also: displayed on phage as pIII fusion, pIII and linker sequences not given here
notes: as for B2
On to B8, for which the “Phage binding ELISA … of PSMA” value in test [3] worked out at 0.165. Besides, the “Phage binding ELISA, Anti-PSMA Fab signal” value in test [4] amounted to 2.16.

B9: Phage-1878 (peptide)
peptide: VEILCKPKWMCEFW
notes: as for B6
For the molecule B9, the “Anti-PSMA Fab (SEQ ID NOs: 19, 20) signal” value in test [5] is 2.07. The “Anti-PSMA Fab signal in the presence of PSMA” value in test [6] was 0.109.

B10: Phage-1861 (peptide)
peptide: AVKLCIPEWMCVGQ
Turning to B10, the “Anti-PSMA Fab signal in the presence of PSMA” value in test [1] worked out at 0.0676. Further, the “Anti-PSMA Fab (SEQ ID NOs: 19, 20) signal” value in test [2] worked out at 2.15.

B11: Phage-1873 (peptide)
peptide: VEHWCIPAWMCEWM
On to B11, for which the “Anti-PSMA Fab signal in the presence of PSMA” value in test [1] turned out to be 0.12. In test [2], the “Anti-PSMA Fab (SEQ ID NOs: 19, 20) signal” value is 2.09.

B12: Phage-1874 (peptide)
peptide: SPKWCTPEWMCSHL
B12: the “Anti-PSMA Fab signal in the presence of PSMA” value in test [1] came out at 0.127. In test [2], the “Anti-PSMA Fab (SEQ ID NOs: 19, 20) signal” value stood at 2.09.

B13: Phage-1860 (peptide)
peptide: GDNWCKPEWMCIGF
modifications: cysteine pairing not given here; also: displayed on phage as pIII fusion, pIII and linker sequences not given here
notes: as for B2
As to B13, the “Phage binding ELISA … of PSMA” value in test [3] turned out to be 0.0978. In test [4], the “Phage binding ELISA, Anti-PSMA Fab signal” value amounted to 2.16.

B14: Phage-1855 (peptide)
peptide: MEKWCTPSWMCVGF
modifications: cysteine pairing not given here; also: displayed on phage as pIII fusion, pIII and linker sequences not given here
notes: as for B2
For the molecule B14, in test [3], the “Phage binding ELISA … of PSMA” value is 0.148. Besides, the “Phage binding ELISA, Anti-PSMA Fab signal” value in test [4] is 2.17.

B15: Phage-1886 (peptide)
peptide: WEKWCIPAWMCVAD
notes: as for B6
B15: the “Anti-PSMA Fab (SEQ ID NOs: 19, 20) signal” value in test [5] was determined as 2.05. Also, in test [6], the “Anti-PSMA Fab signal in the presence of PSMA” value was 0.134.

B16: Phage-1876 (peptide)
peptide: VVKLCIPEWMCAEW
modifications: cysteine pairing not given here; also: displayed on phage as pIII fusion, pIII sequence and linker not given here
notes: as for B6
Turning to B16, the “Anti-PSMA Fab (SEQ ID NOs: 19, 20) signal” value in test [5] is 2.08. The “Anti-PSMA Fab signal in the presence of PSMA” value in test [6] stood at 0.115.

B17: Phage-1865 (peptide)
peptide: EITRCIPAWMCDFW
In the case of B17, the “Anti-PSMA Fab signal in the presence of PSMA” value in test [1] stood at 0.081. In test [2], the “Anti-PSMA Fab (SEQ ID NOs: 19, 20) signal” value was determined as 2.13.

B18: Phage-1879 (peptide)
peptide: SLHWCIPAWMCDFV
notes: as for B6
For the molecule B18, in test [5], the “Anti-PSMA Fab (SEQ ID NOs: 19, 20) signal” value was found to be 2.07. Besides, the “Anti-PSMA Fab signal in the presence of PSMA” value in test [6] was 0.185.

B19: Phage-1858 (peptide)
peptide: VDKWCTPIWMCEGF
modifications: cysteine pairing not given here; also: displayed on phage as pIII fusion, pIII and linker sequences not given here
notes: as for B2
Take B19: the “Phage binding ELISA … of PSMA” value in test [3] came to 0.0951. The “Phage binding ELISA, Anti-PSMA Fab signal” value in test [4] amounted to 2.16.

B20: Phage-1864 (peptide)
peptide: IMKWCIPEWMCYFF
Take B20: in test [1], the “Anti-PSMA Fab signal in the presence of PSMA” value was 0.1. Moreover, the “Anti-PSMA Fab (SEQ ID NOs: 19, 20) signal” value in test [2] worked out at 2.14.

B21: Phage-1870 (peptide)
peptide: EFIWCRPAWMCMDV
As to B21, the “Anti-PSMA Fab signal in the presence of PSMA” value in test [1] came out at 0.0681. For the same molecule, in test [2], the “Anti-PSMA Fab (SEQ ID NOs: 19, 20) signal” value was 2.11.

B22: Phage-1869 (peptide)
peptide: SIKMCIPQWMCVMQ
On to B22, for which the “Anti-PSMA Fab signal in the presence of PSMA” value in test [1] came out at 0.179. For the same molecule, the “Anti-PSMA Fab (SEQ ID NOs: 19, 20) signal” value in test [2] came to 2.11.

B23: Phage-1882 (peptide)
peptide: VTPWCTPSWMCFGF
notes: as for B6
As to B23, in test [5], the “Anti-PSMA Fab (SEQ ID NOs: 19, 20) signal” value is 2.06. In addition, the “Anti-PSMA Fab signal in the presence of PSMA” value in test [6] stood at 0.072.

B24: Phage-1868 (peptide)
peptide: MEKLCKPAWMCSML
In the case of B24, in test [1], the “Anti-PSMA Fab signal in the presence of PSMA” value was found to be 0.0627. Moreover, in test [2], the “Anti-PSMA Fab (SEQ ID NOs: 19, 20) signal” value came out at 2.11.

B25: Phage-1877 (peptide)
peptide: IERWCIPDWMCHVW
notes: as for B6
In the case of B25, the “Anti-PSMA Fab (SEQ ID NOs: 19, 20) signal” value in test [5] amounted to 2.08. For the same molecule, in test [6], the “Anti-PSMA Fab signal in the presence of PSMA” value was 0.126.

B26: Phage-1866 (peptide)
peptide: WEHWCRPAWMCESL
B26: the “Anti-PSMA Fab signal in the presence of PSMA” value in test [1] is 0.134. The “Anti-PSMA Fab (SEQ ID NOs: 19, 20) signal” value in test [2] was 2.12.

B27: Phage-1856 (peptide)
peptide: MGNWCIPTWMCTGF
modifications: cysteine pairing not given here; also: displayed on phage as pIII fusion, pIII and linker sequences not given here
notes: as for B2
In the case of B27, in test [3], the “Phage binding ELISA … of PSMA” value stood at 0.162. Moreover, in test [4], the “Phage binding ELISA, Anti-PSMA Fab signal” value was found to be 2.16.

B28: Phage-1885 (peptide)
peptide: FAKWCIPEWMCSVS
notes: as for B6
For B28, the “Anti-PSMA Fab (SEQ ID NOs: 19, 20) signal” value in test [5] was found to be 2.06. The “Anti-PSMA Fab signal in the presence of PSMA” value in test [6] was found to be 0.119.

B29: Phage-1871 (peptide)
peptide: HVKWCIPAWMCEAS
In the case of B29, in test [1], the “Anti-PSMA Fab signal in the presence of PSMA” value amounted to 0.0972. In addition, in test [2], the “Anti-PSMA Fab (SEQ ID NOs: 19, 20) signal” value amounted to 2.1.

B30: Phage-1880 (peptide)
peptide: VLMLCKPAWMCMGF
notes: as for B6
On to B30, for which the “Anti-PSMA Fab (SEQ ID NOs: 19, 20) signal” value in test [5] was determined as 2.07. Moreover, the “Anti-PSMA Fab signal in the presence of PSMA” value in test [6] was 0.375.

B31: Phage-1859 (peptide)
peptide: VEKWCVPTWMCDWV
modifications: cysteine pairing not given here; also: displayed on phage as pIII fusion, pIII and linker sequences not given here
notes: as for B2
Regarding B31, the “Phage binding ELISA … of PSMA” value in test [3] is 0.0833. The “Phage binding ELISA, Anti-PSMA Fab signal” value in test [4] turned out to be 2.16.

B32: Phage-1875 (peptide)
peptide: FVPWCIPAWMCAEN
modifications: cysteine pairing not given here; also: displayed on phage as pIII fusion, pIII sequence and linker not given here
For B32, the “Anti-PSMA Fab signal in the presence of PSMA” value in test [1] worked out at 0.111. The “Anti-PSMA Fab (SEQ ID NOs: 19, 20) signal” value in test [2] worked out at 2.08.

B33: Phage-1884 (peptide)
peptide: MVMRCQPEWMCTGI
notes: as for B6
Regarding B33, the “Anti-PSMA Fab (SEQ ID NOs: 19, 20) signal” value in test [5] was 2.06. Moreover, the “Anti-PSMA Fab signal in the presence of PSMA” value in test [6] worked out at 0.122.

B34: Phage-1883 (peptide)
peptide: VNKLCTPEWMCVGM
notes: as for B6
Regarding B34, the “Anti-PSMA Fab (SEQ ID NOs: 19, 20) signal” value in test [5] turned out to be 2.06. The “Anti-PSMA Fab signal in the presence of PSMA” value in test [6] was 0.0609.

The record behind these values is patent US20260242478A1 (published 2026).
